± gives the uncertainty stated by the source.
B1: RNA-binding E3 ubiquitin-protein ligase MEX3C, residues 325 to 391; numbered along this chain, Q5U5Q3 (parent)
chain: GQTTVQVRVPYRVVGLVVGPKGATIKRIQQQTHTYIVTPSRDKEPVFEVTGMPENVDRAREEIEMHI

Variants of: B1
Assay: abundance fitness (aPCA) (normalised: wild type 0, dead -1); higher = more abundant; growth selection in yeast, the domain comes from the species named
Details: Homo sapiens

Variant	abundance fitness
GQTTVQVRVPYRVVGLVVWPKGATIKRIQQQTHTYIVTPSRDKEPVFEVTGMPENVDRAREEIEMHI [G19W]	-0.848 ± 0.13
GQTTVQVRVPYRVVGLVVFPKGATIKRIQQQTHTYIVTPSRDKEPVFEVTGMPENVDRAREEIEMHI [G19F]	-0.863 ± 0.27
GQTTVQVRVPYRVVGLVVTPKGATIKRIQQQTHTYIVTPSRDKEPVFEVTGMPENVDRAREEIEMHI [G19T]	-0.822 ± 0.13
GQTTVQVRVPYRVVGLVVAPKGATIKRIQQQTHTYIVTPSRDKEPVFEVTGMPENVDRAREEIEMHI [G19A]	-0.86 ± 0.16
GQTTVQVRVPYRVVGLVVKPKGATIKRIQQQTHTYIVTPSRDKEPVFEVTGMPENVDRAREEIEMHI [G19K]	-0.785 ± 0.14
GQTTVQVRVPYRVVGLVVNPKGATIKRIQQQTHTYIVTPSRDKEPVFEVTGMPENVDRAREEIEMHI [G19N]	-0.64 ± 0.31
GQTTVQVRVPYRVVGLVVVPKGATIKRIQQQTHTYIVTPSRDKEPVFEVTGMPENVDRAREEIEMHI [G19V]	-0.795 ± 0.11
GQTTVQVRVPYRVVGLVVEPKGATIKRIQQQTHTYIVTPSRDKEPVFEVTGMPENVDRAREEIEMHI [G19E]	-0.897 ± 0.12
GQTTVQVRVPYRVVGLVVIPKGATIKRIQQQTHTYIVTPSRDKEPVFEVTGMPENVDRAREEIEMHI [G19I]	-1.08 ± 0.49
GQTTVQVRVPYRVVGLVVMPKGATIKRIQQQTHTYIVTPSRDKEPVFEVTGMPENVDRAREEIEMHI [G19M]	-1.03 ± 0.3
GQTTVQVRVPYRVVGLVVDPKGATIKRIQQQTHTYIVTPSRDKEPVFEVTGMPENVDRAREEIEMHI [G19D]	-0.716 ± 0.15
GQTTVQVRVPYRVVGLVVHPKGATIKRIQQQTHTYIVTPSRDKEPVFEVTGMPENVDRAREEIEMHI [G19H]	-0.694 ± 0.24
GQTTVQVRVPYRVVGLVVLPKGATIKRIQQQTHTYIVTPSRDKEPVFEVTGMPENVDRAREEIEMHI [G19L]	-0.951 ± 0.13
GQTTVQVRVPYRVVGLVVYPKGATIKRIQQQTHTYIVTPSRDKEPVFEVTGMPENVDRAREEIEMHI [G19Y]	-0.159 ± 0.2
GQTTVQVRVPYRVVGLVVRPKGATIKRIQQQTHTYIVTPSRDKEPVFEVTGMPENVDRAREEIEMHI [G19R]	-0.739 ± 0.069
GQTTVQVRVPYRVVGLVVCPKGATIKRIQQQTHTYIVTPSRDKEPVFEVTGMPENVDRAREEIEMHI [G19C]	-0.844 ± 0.16
GQTTVQVRVPYRVVGLVVPPKGATIKRIQQQTHTYIVTPSRDKEPVFEVTGMPENVDRAREEIEMHI [G19P]	-0.824 ± 0.16
GQTTVQVRVPYRVVGLVVQPKGATIKRIQQQTHTYIVTPSRDKEPVFEVTGMPENVDRAREEIEMHI [G19Q]	-0.623 ± 0.17
GQTTVQVRVPYRVVGVVVGPKGATIKRIQQQTHTYIVTPSRDKEPVFEVTGMPENVDRAREEIEMHI [L16V]	-0.353 ± 0.058
GQTTVQVRVPYRVVGEVVGPKGATIKRIQQQTHTYIVTPSRDKEPVFEVTGMPENVDRAREEIEMHI [L16E]	-0.133 ± 0.065
GQTTVQVRVPYRVVGTVVGPKGATIKRIQQQTHTYIVTPSRDKEPVFEVTGMPENVDRAREEIEMHI [L16T]	-0.095 ± 0.07
GQTTVQVRVPYRVVGPVVGPKGATIKRIQQQTHTYIVTPSRDKEPVFEVTGMPENVDRAREEIEMHI [L16P]	-0.615 ± 0.14
GQTTVQVRVPYRVVGIVVGPKGATIKRIQQQTHTYIVTPSRDKEPVFEVTGMPENVDRAREEIEMHI [L16I]	-0.174 ± 0.12
GQTTVQVRVPYRVVGKVVGPKGATIKRIQQQTHTYIVTPSRDKEPVFEVTGMPENVDRAREEIEMHI [L16K]	-0.192 ± 0.089
GQTTVQVRVPYRVVGMVVGPKGATIKRIQQQTHTYIVTPSRDKEPVFEVTGMPENVDRAREEIEMHI [L16M]	0.316 ± 0.1
GQTTVQVRVPYRVVGDVVGPKGATIKRIQQQTHTYIVTPSRDKEPVFEVTGMPENVDRAREEIEMHI [L16D]	-0.058 ± 0.072
GQTTVQVRVPYRVVGGVVGPKGATIKRIQQQTHTYIVTPSRDKEPVFEVTGMPENVDRAREEIEMHI [L16G]	-0.506 ± 0.064

Variant	abundance fitness
GQTTVQVRVPYRVVGRVVGPKGATIKRIQQQTHTYIVTPSRDKEPVFEVTGMPENVDRAREEIEMHI [L16R]	0.075 ± 0.045
GQTTVQVRVPYRVVGQVVGPKGATIKRIQQQTHTYIVTPSRDKEPVFEVTGMPENVDRAREEIEMHI [L16Q]	0.034 ± 0.073
GQTTVQVRVPYRVVGYVVGPKGATIKRIQQQTHTYIVTPSRDKEPVFEVTGMPENVDRAREEIEMHI [L16Y]	-0.228 ± 0.13
GQTTVQVRVPYRVVGNVVGPKGATIKRIQQQTHTYIVTPSRDKEPVFEVTGMPENVDRAREEIEMHI [L16N]	-0.312 ± 0.14
GQTTVQVRVPYRVVGFVVGPKGATIKRIQQQTHTYIVTPSRDKEPVFEVTGMPENVDRAREEIEMHI [L16F]	-0.139 ± 0.14
GQTTVQVRVPYRVVGAVVGPKGATIKRIQQQTHTYIVTPSRDKEPVFEVTGMPENVDRAREEIEMHI [L16A]	-0.052 ± 0.059
GQTTVQVRVPYRVVGCVVGPKGATIKRIQQQTHTYIVTPSRDKEPVFEVTGMPENVDRAREEIEMHI [L16C]	-0.213 ± 0.087
GQTTVQVRVPYRVVGWVVGPKGATIKRIQQQTHTYIVTPSRDKEPVFEVTGMPENVDRAREEIEMHI [L16W]	-0.122 ± 0.07
GQTTVQVRVPYRVVGHVVGPKGATIKRIQQQTHTYIVTPSRDKEPVFEVTGMPENVDRAREEIEMHI [L16H]	-0.047 ± 0.086
GQTTVQVRVPYRVVGLVMGPKGATIKRIQQQTHTYIVTPSRDKEPVFEVTGMPENVDRAREEIEMHI [V18M]	-0.119 ± 0.093
GQTTVQVRVPYRVVGLVDGPKGATIKRIQQQTHTYIVTPSRDKEPVFEVTGMPENVDRAREEIEMHI [V18D]	-0.367 ± 0.13
GQTTVQVRVPYRVVGLVFGPKGATIKRIQQQTHTYIVTPSRDKEPVFEVTGMPENVDRAREEIEMHI [V18F]	-0.374 ± 0.13
GQTTVQVRVPYRVVGLVWGPKGATIKRIQQQTHTYIVTPSRDKEPVFEVTGMPENVDRAREEIEMHI [V18W]	-0.639 ± 0.13
GQTTVQVRVPYRVVGLVYGPKGATIKRIQQQTHTYIVTPSRDKEPVFEVTGMPENVDRAREEIEMHI [V18Y]	-0.256 ± 0.099
GQTTVQVRVPYRVVGLVCGPKGATIKRIQQQTHTYIVTPSRDKEPVFEVTGMPENVDRAREEIEMHI [V18C]	-0.258 ± 0.083
GQTTVQVRVPYRVVGLVIGPKGATIKRIQQQTHTYIVTPSRDKEPVFEVTGMPENVDRAREEIEMHI [V18I]	0.019 ± 0.16
GQTTVQVRVPYRVVGLVEGPKGATIKRIQQQTHTYIVTPSRDKEPVFEVTGMPENVDRAREEIEMHI [V18E]	-0.284 ± 0.062
GQTTVQVRVPYRVVGLVGGPKGATIKRIQQQTHTYIVTPSRDKEPVFEVTGMPENVDRAREEIEMHI [V18G]	-0.794 ± 0.08
GQTTVQVRVPYRVVGLVNGPKGATIKRIQQQTHTYIVTPSRDKEPVFEVTGMPENVDRAREEIEMHI [V18N]	-0.305 ± 0.14
GQTTVQVRVPYRVVGLVPGPKGATIKRIQQQTHTYIVTPSRDKEPVFEVTGMPENVDRAREEIEMHI [V18P]	-0.771 ± 0.13
GQTTVQVRVPYRVVGLVTGPKGATIKRIQQQTHTYIVTPSRDKEPVFEVTGMPENVDRAREEIEMHI [V18T]	-0.26 ± 0.067
GQTTVQVRVPYRVVGLVRGPKGATIKRIQQQTHTYIVTPSRDKEPVFEVTGMPENVDRAREEIEMHI [V18R]	-0.508 ± 0.061
GQTTVQVRVPYRVVGLVQGPKGATIKRIQQQTHTYIVTPSRDKEPVFEVTGMPENVDRAREEIEMHI [V18Q]	-0.63 ± 0.14
GQTTVQVRVPYRVVGLVKGPKGATIKRIQQQTHTYIVTPSRDKEPVFEVTGMPENVDRAREEIEMHI [V18K]	-0.541 ± 0.086
GQTTVQVRVPYRVVGLVHGPKGATIKRIQQQTHTYIVTPSRDKEPVFEVTGMPENVDRAREEIEMHI [V18H]	-0.456 ± 0.15
GQTTVQVRVPYRVVGLVSGPKGATIKRIQQQTHTYIVTPSRDKEPVFEVTGMPENVDRAREEIEMHI [V18S]	-0.523 ± 0.074
GQTTVQVRVPYRVVGLVAGPKGATIKRIQQQTHTYIVTPSRDKEPVFEVTGMPENVDRAREEIEMHI [V18A]	-0.433 ± 0.08

Variant	abundance fitness
GQTTVQVRVPYRVVGLVVGEKGATIKRIQQQTHTYIVTPSRDKEPVFEVTGMPENVDRAREEIEMHI [P20E]	-0.139 ± 0.076
GQTTVQVRVPYRVVGLVVGGKGATIKRIQQQTHTYIVTPSRDKEPVFEVTGMPENVDRAREEIEMHI [P20G]	-0.717 ± 0.08
GQTTVQVRVPYRVVGLVVGCKGATIKRIQQQTHTYIVTPSRDKEPVFEVTGMPENVDRAREEIEMHI [P20C]	-0.444 ± 0.12
GQTTVQVRVPYRVVGLVVGQKGATIKRIQQQTHTYIVTPSRDKEPVFEVTGMPENVDRAREEIEMHI [P20Q]	-0.15 ± 0.085
GQTTVQVRVPYRVVGLVVGKKGATIKRIQQQTHTYIVTPSRDKEPVFEVTGMPENVDRAREEIEMHI [P20K]	-0.026 ± 0.057
GQTTVQVRVPYRVVGLVVGHKGATIKRIQQQTHTYIVTPSRDKEPVFEVTGMPENVDRAREEIEMHI [P20H]	-0.123 ± 0.18
GQTTVQVRVPYRVVGLVVGMKGATIKRIQQQTHTYIVTPSRDKEPVFEVTGMPENVDRAREEIEMHI [P20M]	-0.763 ± 0.17
GQTTVQVRVPYRVVGLVVGRKGATIKRIQQQTHTYIVTPSRDKEPVFEVTGMPENVDRAREEIEMHI [P20R]	-0.039 ± 0.05
GQTTVQVRVPYRVVGLVVGLKGATIKRIQQQTHTYIVTPSRDKEPVFEVTGMPENVDRAREEIEMHI [P20L]	-0.59 ± 0.094
GQTTVQVRVPYRVVGLVVGIKGATIKRIQQQTHTYIVTPSRDKEPVFEVTGMPENVDRAREEIEMHI [P20I]	0.051 ± 0.24
GQTTVQVRVPYRVVGLVVGAKGATIKRIQQQTHTYIVTPSRDKEPVFEVTGMPENVDRAREEIEMHI [P20A]	-0.381 ± 0.065
GQTTVQVRVPYRVVGLTVGPKGATIKRIQQQTHTYIVTPSRDKEPVFEVTGMPENVDRAREEIEMHI [V17T]	-0.524 ± 0.098
GQTTVQVRVPYRVVGLKVGPKGATIKRIQQQTHTYIVTPSRDKEPVFEVTGMPENVDRAREEIEMHI [V17K]	-0.533 ± 0.12
GQTTVQVRVPYRVVGLLVGPKGATIKRIQQQTHTYIVTPSRDKEPVFEVTGMPENVDRAREEIEMHI [V17L]	-0.415 ± 0.076
GQTTVQVRVPYRVVGLRVGPKGATIKRIQQQTHTYIVTPSRDKEPVFEVTGMPENVDRAREEIEMHI [V17R]	-0.751 ± 0.082
GQTTVQVRVPYRVVGLSVGPKGATIKRIQQQTHTYIVTPSRDKEPVFEVTGMPENVDRAREEIEMHI [V17S]	-0.872 ± 0.11
GQTTVQVRVPYRVVGLQVGPKGATIKRIQQQTHTYIVTPSRDKEPVFEVTGMPENVDRAREEIEMHI [V17Q]	-0.529 ± 0.17
GQTTVQVRVPYRVVGLFVGPKGATIKRIQQQTHTYIVTPSRDKEPVFEVTGMPENVDRAREEIEMHI [V17F]	-0.711 ± 0.17
GQTTVQVRVPYRVVGLAVGPKGATIKRIQQQTHTYIVTPSRDKEPVFEVTGMPENVDRAREEIEMHI [V17A]	-0.436 ± 0.076
GQTTVQVRVPYRVVGLWVGPKGATIKRIQQQTHTYIVTPSRDKEPVFEVTGMPENVDRAREEIEMHI [V17W]	-0.635 ± 0.084
GQTTVQVRVPYRVVGLDVGPKGATIKRIQQQTHTYIVTPSRDKEPVFEVTGMPENVDRAREEIEMHI [V17D]	-0.702 ± 0.14
GQTTVQVRVPYRVVGLMVGPKGATIKRIQQQTHTYIVTPSRDKEPVFEVTGMPENVDRAREEIEMHI [V17M]	-0.741 ± 0.17
GQTTVQVRVPYRVVGLEVGPKGATIKRIQQQTHTYIVTPSRDKEPVFEVTGMPENVDRAREEIEMHI [V17E]	-0.537 ± 0.085
GQTTVQVRVPYRVVGLYVGPKGATIKRIQQQTHTYIVTPSRDKEPVFEVTGMPENVDRAREEIEMHI [V17Y]	-0.505 ± 0.11
GQTTVQVRVPYRVVGLHVGPKGATIKRIQQQTHTYIVTPSRDKEPVFEVTGMPENVDRAREEIEMHI [V17H]	-0.149 ± 0.13
GQTTVQVRVPYRVVGLIVGPKGATIKRIQQQTHTYIVTPSRDKEPVFEVTGMPENVDRAREEIEMHI [V17I]	0.013 ± 0.099

Reference: the Human Domainome abundance scans (Beltran et al. 2025)
